Laboratory results as given in paper PMC10960872.

Assays:
[1] = target: NanoBiT Gq: Gαq–LgBiT (wild type) co-expressed with Gβ1 and Gγ2, P50148;P62873;P59768; test: NanoBiT assay (M3-SmBiT with Gαq–LgBiT, Gβ1, Gγ2), basal; details: absence of agonist; parent: est. 78 (WT 1:4, expression-matched; WT 1:1 = 100); read off a plot
[2] = target: NanoBiT Gq: Gαq–LgBiT (wild type) co-expressed with Gβ1 and Gγ2, P50148;P62873;P59768; test: NanoBiT assay (M3-SmBiT with Gαq–LgBiT, Gβ1, Gγ2), ACh titration; details: titrated concentrations of acetylcholine; parent: est. -0.1 (WT 1:4, expression-matched; WT 1:1 = 0); read off a plot

percent of parent [1] [%RLU] | other: ΔpEC50 [2] | Substance
46 | -0.2 | ssHA-FLAG-M3-SmBiT (wild type), P20309 M3-6A (C-tail KKKRRK to AAAAAA)
50 | -0.3 | ssHA-FLAG-M3-SmBiT (wild type), P20309 M3-GS (C-tail KKKRRK to GSGSGS)
